Measurements: article PMC7402283, “Characterizing the Fused TvG6PD::6PGL Protein from the Protozoan Trichomonas vaginalis, and Effects of the NADP^+ Molecule on Enzyme Stability” (International Journal of Molecular Sciences, 2020)
One block for each molecule: values may come before it.

How the values were obtained:
TvG6PD::6PGL = biological target: T1, TvG6PD::6PGL (Trichomonas vaginalis, UniProt A2EC78); assay: intrinsic tryptophan fluorescence quenching titration, excitation […] nm; type: binding
T1 construct: gene TVAG_414060; full-length fused protein, 716 aa, G6PD N-terminal (1-483) and 6PGL C-terminal, 81,692 Da; pET3a-HisTEV, N-terminal His6 tag removed by TEV protease; E. coli BL21(DE3) zwf-deleted; native tetramer
T1 sequence (A2EC78 1-716): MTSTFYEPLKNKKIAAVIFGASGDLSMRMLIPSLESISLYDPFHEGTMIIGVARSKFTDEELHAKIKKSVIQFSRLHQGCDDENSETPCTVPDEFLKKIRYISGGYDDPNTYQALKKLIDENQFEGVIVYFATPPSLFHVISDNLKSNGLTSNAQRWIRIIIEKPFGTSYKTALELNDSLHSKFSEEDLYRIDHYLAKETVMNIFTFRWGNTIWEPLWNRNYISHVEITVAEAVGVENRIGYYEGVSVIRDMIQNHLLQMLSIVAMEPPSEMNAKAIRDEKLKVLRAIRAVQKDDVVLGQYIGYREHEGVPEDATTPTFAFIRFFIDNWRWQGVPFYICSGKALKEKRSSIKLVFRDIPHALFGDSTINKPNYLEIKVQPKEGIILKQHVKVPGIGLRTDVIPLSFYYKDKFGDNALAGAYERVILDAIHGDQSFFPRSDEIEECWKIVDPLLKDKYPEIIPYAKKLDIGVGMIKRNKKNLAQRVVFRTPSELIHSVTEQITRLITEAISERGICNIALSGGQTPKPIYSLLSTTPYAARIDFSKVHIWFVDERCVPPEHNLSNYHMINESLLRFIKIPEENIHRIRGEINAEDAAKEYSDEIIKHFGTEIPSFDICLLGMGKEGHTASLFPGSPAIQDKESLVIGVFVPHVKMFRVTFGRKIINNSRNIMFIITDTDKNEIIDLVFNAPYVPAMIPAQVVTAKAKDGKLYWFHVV

[1] = biological target: fused glucose-6-phosphate dehydrogenase-phosphogluconolactonase protein from Trichomonas vaginalis (TvG6PD::6PGL) (Trichomonas vaginalis); assay: SEC; Sephacryl 400 (16/60) gel filtration column, 50 mM phosphate buffer pH 7.35, flow 0.3 mL/min, calibrated with Bio-Rad gel filtration standards; single peak at 59.9 mL; no monomer, dimer or larger aggregates seen
purified protein [2] = substrate: NC(=O)c1ccc[n+]([C@@H]2O[C@H](COP(=O)(O)OP(=O)(O)OC[C@H]3O[C@@H](n4cnc5c(N)ncnc54)[C@H](OP(=O)(O)O)[C@@H]3O)[C@@H](O)[C@H]2O)c1; assay: purified protein; type: biochemical, Trichomonas vaginalis; settings: G6P fixed at 1 mM, pH 8.0, apparent Km, catalytic site
purified protein [3] = substrate: O=P(O)(O)OC[C@H]1OC(O)[C@H](O)[C@@H](O)[C@@H]1O; assay: purified protein; type: biochemical, Trichomonas vaginalis; settings: NADP+ fixed at 150 uM, pH 8.0, apparent Km

Molecule: NC(=O)c1ccc[n+]([C@@H]2O[C@H](COP(=O)(O)OP(=O)(O)OC[C@H]3O[C@@H](n4cnc5c(N)ncnc54)[C@H](OP(=O)(O)O)[C@@H]3O)[C@@H](O)[C@H]2O)c1 [NADP^+]
Kd (TvG6PD::6PGL): 31 nM

stoichiometry N [1]: 4
Molecule: fused glucose-6-phosphate dehydrogenase-phosphogluconolactonase protein from Trichomonas vaginalis (TvG6PD::6PGL) (enzyme)

B1: TvG6PD::6PGL (Trichomonas vaginalis G3) (protein)
chain: T1 sequence (A2EC78 1-716)
notes: full-length fused protein, 716 aa, G6PD N-terminal (1-483) and 6PGL C-terminal, 81,692 Da; pET3a-HisTEV, N-terminal His6 tag removed by TEV protease; E. coli BL21(DE3) zwf-deleted; native tetramer
Km (purified protein [2]): 27 µM
kcat (purified protein [2]): 147 s⁻¹
Km (purified protein [3]): 210 µM
kcat (purified protein [3]): 147 s⁻¹
